According to patent US20190284544:

Legend:
[1] = system: CAPN5-370-380 peptide (RQNRGGGCINH)
CAPN5p.372-378 peptide = CAPN5p.372-378 peptide (UniProt O15484)
[2] = system: homologous regions of other CAPN members

Sequence of CAPN5-R243L (chain, as listed by the source R243L): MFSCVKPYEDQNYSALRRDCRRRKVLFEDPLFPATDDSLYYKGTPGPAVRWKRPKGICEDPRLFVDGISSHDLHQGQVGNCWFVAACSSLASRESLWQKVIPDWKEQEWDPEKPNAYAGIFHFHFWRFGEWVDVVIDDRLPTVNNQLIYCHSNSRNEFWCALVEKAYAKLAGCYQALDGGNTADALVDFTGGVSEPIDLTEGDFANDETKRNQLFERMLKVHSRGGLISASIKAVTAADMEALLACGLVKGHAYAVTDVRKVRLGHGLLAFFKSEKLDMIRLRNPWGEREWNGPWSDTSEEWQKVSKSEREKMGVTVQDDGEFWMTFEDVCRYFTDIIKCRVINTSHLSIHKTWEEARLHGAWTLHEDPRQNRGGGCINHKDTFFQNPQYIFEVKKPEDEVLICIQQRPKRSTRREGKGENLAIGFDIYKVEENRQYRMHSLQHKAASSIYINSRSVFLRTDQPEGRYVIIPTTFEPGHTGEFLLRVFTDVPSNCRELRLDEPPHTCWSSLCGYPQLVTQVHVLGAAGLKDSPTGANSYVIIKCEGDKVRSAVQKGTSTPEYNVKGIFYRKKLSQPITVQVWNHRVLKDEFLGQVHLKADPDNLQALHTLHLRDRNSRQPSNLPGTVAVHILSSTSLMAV
Sequence of CAPN5-370-390 peptide (chain, as listed by the source): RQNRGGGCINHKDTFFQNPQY
Sequence of CAPN1 WT (P07384 2-714): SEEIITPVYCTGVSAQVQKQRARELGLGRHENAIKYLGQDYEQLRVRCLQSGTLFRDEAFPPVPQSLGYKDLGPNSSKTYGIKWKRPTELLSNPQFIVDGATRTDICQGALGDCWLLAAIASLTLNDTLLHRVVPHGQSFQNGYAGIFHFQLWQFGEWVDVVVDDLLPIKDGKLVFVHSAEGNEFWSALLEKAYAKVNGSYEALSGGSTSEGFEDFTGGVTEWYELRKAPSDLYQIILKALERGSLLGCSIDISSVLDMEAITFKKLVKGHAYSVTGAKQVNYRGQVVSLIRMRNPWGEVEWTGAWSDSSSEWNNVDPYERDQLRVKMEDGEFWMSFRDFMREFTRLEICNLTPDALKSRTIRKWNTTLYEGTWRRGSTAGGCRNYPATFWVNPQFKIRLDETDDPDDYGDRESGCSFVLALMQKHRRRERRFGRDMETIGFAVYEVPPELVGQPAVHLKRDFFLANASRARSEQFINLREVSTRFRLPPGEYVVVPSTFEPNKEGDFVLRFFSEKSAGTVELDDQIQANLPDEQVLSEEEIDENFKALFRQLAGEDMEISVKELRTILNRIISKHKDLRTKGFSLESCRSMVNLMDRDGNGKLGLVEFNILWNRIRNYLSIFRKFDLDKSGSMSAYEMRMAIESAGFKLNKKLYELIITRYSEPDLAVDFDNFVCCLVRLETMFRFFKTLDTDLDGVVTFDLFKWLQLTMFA
Sequence of Pep-2-Mod (chain, as listed by the source): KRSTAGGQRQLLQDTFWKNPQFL
Sequence of CAPN14 peptide (chain, as listed by the source): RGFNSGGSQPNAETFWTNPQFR
Sequence of Pep-1-Mod (chain, as listed by the source): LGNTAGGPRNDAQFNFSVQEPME

CAPN5 WT (Homo sapiens calpain 5)
cleavage (change in fluorescence) [1]: the CAPN5-370-380 fragment was the most sensitive to cleavage by both WT and R243L CAPN5 | cleavage (fluorescence) [1]: rapid and high cleavage of the 11 aa peptide | fluorescent intensity (FRET substrate proteolysis) [1]: CAPN5-WT proteolyzes the substrate, CAPN5 (p370-380), at a higher rate than other peptides | proteolysis (fluorescence) [1]: The peptide shows high proteolysis when incubated with CAPN5-WT | cleavage (fluorescence) (CAPN5-370-390 peptide): The 21 aa peptide was cleaved slower and does not show cleavage substrate inhibition | proteolysis (CAPN14 peptide): there was some proteolysis of the CAPN14 peptide | cleavage (fluorescence) (CAPN5p.372-378 peptide): There was mild cleavage of the 7 aa peptide was observed | proteolysis [2]: CAPN5 did not proteolyze homologous regions of other CAPN members as well as it proteolyzed its own site | initial reaction rate (proteolysis of CAPN5p.370-80 by CAPN5 WT) (Cyclic CAPN5 p.370-80): Addition of 10 µM Cyclic CAPN5 p.370-80 slows the initial reaction rate by 40% | initial velocity versus substrate concentration, with and without 10 µM cyclic peptide (Cyclic CAPN5 p.370-80): Increasing concentrations of substrate does not overcome inhibition by cyclic peptide | proteolysis (EPLFAERK peptide): it is not proteolyzed by CAPN5 | proteolysis (fluorescence) (EPLFAERK peptide): very limited proteolysis when incubated with CAPN5-WT

MBP-CAPN5 WT
reaction rate (initial velocity of proteolysis) (Pep-2-Mod): Modification of the amino acids slows the reaction rate | reaction rate (initial velocity of proteolysis) (Pep-1-Mod): Modification of the amino acids slows the reaction rate

CAPN5-R243L
cleavage (change in fluorescence) [1]: the CAPN5-370-380 fragment was the most sensitive to cleavage by both WT and R243L CAPN5 | fluorescent intensity (FRET substrate proteolysis) [1]: the greatest fluorescent intensity is detected with substrates CAPN5 (p370-390), CAPN5 (370-380), and PDGFB (155-170) | fluorescent intensity (FRET substrate proteolysis) (CAPN5-370-390 peptide): the greatest fluorescent intensity is detected with substrates CAPN5 (p370-390), CAPN5 (370-380), and PDGFB (155-170) | fluorescent intensity (FRET substrate proteolysis) (PDGFB (155-170) peptide): the greatest fluorescent intensity is detected with substrates CAPN5 (p370-390), CAPN5 (370-380), and PDGFB (155-170)

CAPN1 WT
proteolysis [2]: CAPN1 does not appear to proteolyze these regions
